Assays:
[1] = target: human insulin receptor extracellular domain (HIR ECD) (human) (UniProt P06213); assay: ELISA, HIR ECD plated (second experiment)
[2] = target: human insulin receptor extracellular domain (HIR ECD) (human) (UniProt P06213); assay: ELISA, HIR ECD plated; compared with the HIR Ab

EC50 [1]: 4.8 nM
reduction in receptor binding affinity against the HIR Ab [2]: 95%
Substance: GUSB-HIR Ab fusion protein (human GUSB fused to the amino terminus of the HIR Ab heavy chain) (from UniProt P08236 23-633) (antibody)

From patent publication US20150064184A1
